Among the data in paper PMC8385992 are stoichiometry N values, retold here.

Holding throughout (test): SEC
A general note: SEC sorts molecules by how far they enter the pores of the column.

Assay [1] deals with SARS-CoV-2 Nsp15 N278A (SARS-CoV-2).
Assay [2] has as its target SARS-CoV-2 Nsp15 S294A (SARS-CoV-2).
In assay [3] the target is SARS-CoV-2 Nsp15 W333A (SARS-CoV-2).
The target of assay [4] is SARS-CoV-2 Nsp15 Y343A (SARS-CoV-2).

One may read the stoichiometry N as the number of molecules, sites or subunits per partner or assembly.

Substance SARS-CoV-2 Nsp15 N278A (enzyme) had a stoichiometry N in assay [1] of 6.

Take SARS-CoV-2 Nsp15 S294A (enzyme): the stoichiometry N in assay [2] worked out at 6.

For the substance SARS-CoV-2 Nsp15 W333A (enzyme), the stoichiometry N in assay [3] is 6.

Take SARS-CoV-2 Nsp15 Y343A (enzyme): the stoichiometry N in assay [4] stood at 6.
